Results reported in US20030224390A1, “Method of identifying conformation-sensitive binding peptides and uses thereof” (Karo Bio AB, priority 2000, published 2003).
Changes are numbered by the printed parent chain.

Assays:
estrogen receptor (ER) α = target: T1, estrogen receptor (ER) α (Homo sapiens, UniProt P03372); assay: Yeast two-hybrid screening of LXXLL peptide library, ligand induced β-galactosidase activity (FIG. 1, Table 501); type: cell-based; settings: with and without estradiol
T1 construct: expressed in transfected cells; host or cells: Saccharomyces cerevisiae PJ69-α
T1 sequence (P03372 1-595): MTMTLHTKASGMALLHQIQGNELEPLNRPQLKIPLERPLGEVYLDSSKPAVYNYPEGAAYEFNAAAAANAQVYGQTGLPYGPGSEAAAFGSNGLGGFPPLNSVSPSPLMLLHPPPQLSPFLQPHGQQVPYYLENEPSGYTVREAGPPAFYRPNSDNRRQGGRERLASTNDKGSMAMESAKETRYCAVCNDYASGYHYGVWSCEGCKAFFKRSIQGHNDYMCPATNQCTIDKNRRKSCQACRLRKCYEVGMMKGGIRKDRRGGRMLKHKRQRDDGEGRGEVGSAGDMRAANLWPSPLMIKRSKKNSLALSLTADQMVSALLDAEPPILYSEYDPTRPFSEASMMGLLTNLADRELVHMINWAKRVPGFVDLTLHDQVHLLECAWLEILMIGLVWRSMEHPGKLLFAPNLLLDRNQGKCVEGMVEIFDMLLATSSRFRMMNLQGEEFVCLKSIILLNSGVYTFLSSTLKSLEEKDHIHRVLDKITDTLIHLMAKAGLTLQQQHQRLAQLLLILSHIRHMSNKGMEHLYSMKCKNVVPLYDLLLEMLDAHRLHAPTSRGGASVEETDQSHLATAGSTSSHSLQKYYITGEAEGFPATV
Excerpt: A directed peptide library (X5LXXLLX5, SEQ ID NO:264) containing the LXXLL motif (previously identified as common in peptides binding estrogen receptor) as a carboxy-terminal fusion to the Gal4 DNA binding domain was constructed with an overall complexity of […] independent peptides. The LXXLL motif library peptides were encoded by the degenerate DNA sequence (NNK)5TTA(NNK)2(TTA)2(NNK)5 (SEQ ID NO:265); TTA is the preferred Leu codon in yeast. NNK encodes a stop codon so a few of the peptides generated will be shorter than 15 a.a. The shortest interacting peptides will likely be 10-mers. This library was transformed into the Saccharomyces cerevisiae PJ69-α yeast strain expressing estrogen receptor (ER) α as a carboxy-terminal fusion to the Gal4 activation domain. […] Those colonies able to grow by inducing the integrated GAL4 driven HIS3 reporter were transferred into 0.25 ml of rich media in a 0.5 ml block.
Cells were pelleted by centrifugation, the media removed and the cells lysed with buffer containing 2.5% CHAPS (3-(3-Cholamidopropyl) dimethyl ammonio-1-propanesulfonate) detergent. A preliminary OD600 was determined to normalize β-galactosidase activity of each well with cell density. […] Yeast clones that generated a value equal to or greater than 0.5 were verified using the same method. Verified clones were then subjected to a final test of ligand induced β-galactosidase activity. […] Ten clones displaying the greatest ligand induced β-galactosidase activity were studied further.
Plasmids containing the peptides were isolated from the yeast cells and the amino acid sequences (Table 501) deduced by DNA sequencing of the library inserts. In Table 501, the underlined sequence is encoded by vector DNA, and the “*” represents the endogenous stop codon of the vector, and is downstream of the cloning site. Several peptides contain the vector-encoded LDLQPS (SEQ ID NO:266) sequence. B5H10 is believed to be the result of a double insert, with the second part being encoded by the complementary sequence. Peptides B1A1 and B1G8 were shorter than the other isolates because the clones encoding them carry a premature stop codon, which is inherent in the NNK library. Because of a frame shift, neither peptide B6A1 nor B3E2 contained the sequence encoded by vector DNA.

ERβ = ERβ (Homo sapiens, UniProt Q92731); assay: Phage ELISA fingerprint: peptide binding to immobilized ER β with modulator present (Table 14B)
[1] = target: T2, pVP16-AR (VP16 activation domain fused to androgen receptor), P10275; assay: cell-based or functional assay
T2 chain: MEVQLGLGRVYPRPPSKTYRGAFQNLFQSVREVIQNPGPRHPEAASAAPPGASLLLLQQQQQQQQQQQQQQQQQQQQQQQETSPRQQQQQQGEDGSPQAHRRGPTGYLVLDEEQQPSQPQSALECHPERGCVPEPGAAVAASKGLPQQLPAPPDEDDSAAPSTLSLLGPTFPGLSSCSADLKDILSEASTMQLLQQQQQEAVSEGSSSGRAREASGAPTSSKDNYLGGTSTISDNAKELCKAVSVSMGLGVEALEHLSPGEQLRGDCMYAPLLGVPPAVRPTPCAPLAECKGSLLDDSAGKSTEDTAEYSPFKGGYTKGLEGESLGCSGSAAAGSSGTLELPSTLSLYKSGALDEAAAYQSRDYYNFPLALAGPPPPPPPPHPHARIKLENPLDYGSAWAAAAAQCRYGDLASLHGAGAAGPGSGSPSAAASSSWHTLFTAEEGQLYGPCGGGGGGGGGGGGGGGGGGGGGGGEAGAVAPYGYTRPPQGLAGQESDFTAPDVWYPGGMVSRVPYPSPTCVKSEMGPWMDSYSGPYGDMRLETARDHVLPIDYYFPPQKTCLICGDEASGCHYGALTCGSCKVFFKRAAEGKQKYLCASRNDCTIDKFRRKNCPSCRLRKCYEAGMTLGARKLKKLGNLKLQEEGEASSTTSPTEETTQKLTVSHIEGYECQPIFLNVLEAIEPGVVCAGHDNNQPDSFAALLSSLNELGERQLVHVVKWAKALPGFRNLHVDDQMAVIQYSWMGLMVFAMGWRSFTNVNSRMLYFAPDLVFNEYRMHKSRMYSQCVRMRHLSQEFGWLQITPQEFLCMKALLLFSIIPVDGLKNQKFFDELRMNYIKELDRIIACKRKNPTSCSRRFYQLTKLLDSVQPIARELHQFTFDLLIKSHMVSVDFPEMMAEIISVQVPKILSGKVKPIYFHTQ

[2] = target: T3, Gal4 transcriptional activation domain (AD) fused in frame with AR (pGAD-C2) (yeast), P10275; assay: cell-based or functional assay
T3 chain: T2 chain

[3] = target: T4, estrogen receptor (ER) α as a carboxy-terminal fusion to the Gal4 activation domain (yeast, UniProt P03372 1-595, limits assumed); assay: cell-based or functional assay
T4 sequence (looked up): T1 sequence (P03372 1-595)

ERβ, sequence (Q92731 whole entry, species assumed, the tested form may be a part): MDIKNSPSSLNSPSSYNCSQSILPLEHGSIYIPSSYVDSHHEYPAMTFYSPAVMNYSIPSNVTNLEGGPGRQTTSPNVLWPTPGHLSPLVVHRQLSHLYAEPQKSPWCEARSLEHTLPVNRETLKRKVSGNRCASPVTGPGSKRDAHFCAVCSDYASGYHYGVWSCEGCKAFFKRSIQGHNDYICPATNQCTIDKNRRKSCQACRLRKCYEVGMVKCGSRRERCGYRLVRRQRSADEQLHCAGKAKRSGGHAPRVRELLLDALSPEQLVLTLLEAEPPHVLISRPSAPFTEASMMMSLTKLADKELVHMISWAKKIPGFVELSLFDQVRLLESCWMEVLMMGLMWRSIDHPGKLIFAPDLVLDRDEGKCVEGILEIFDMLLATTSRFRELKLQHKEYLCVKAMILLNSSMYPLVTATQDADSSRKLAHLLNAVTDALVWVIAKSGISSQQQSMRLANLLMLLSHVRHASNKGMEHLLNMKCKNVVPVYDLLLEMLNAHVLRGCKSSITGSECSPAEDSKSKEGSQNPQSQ

## EFCPVGLLVHLLMQ* [B1A1]
Estrogen receptor (ER) α
  Fold Induction (ligand induced β-galactosidase activity): 11

## EFFRATHLLRLLRTDSALDLQPS* [B6F3]
Estrogen receptor (ER) α
  Fold Induction (ligand induced β-galactosidase activity): 3

## EFFRLRRLDRLLQDSFLLDLQPS* [B2G1]
Estrogen receptor (ER) α
  Fold Induction (ligand induced β-galactosidase activity): 12

## EFGCSAILRYLLRSPRDLDLQPS* [B5A2]
Estrogen receptor (ER) α
  Fold Induction (ligand induced β-galactosidase activity): 2.5

## EFGGSVLLRELLCCYDALEPTTTR [B3E2]
Estrogen receptor (ER) α
  Fold Induction (ligand induced β-galactosidase activity): 3

## EFSGVPILHMLLMLPSSLDLQOPS* [B4F6]
Estrogen receptor (ER) α
  Fold Induction (ligand induced β-galactosidase activity): 5

## EFSPPSSLLALLLGGKSLEPLPIRYKNVKRQFTSNSRGSVDLQPS [B5H10]
Estrogen receptor (ER) α
  Fold Induction (ligand induced β-galactosidase activity): 4.5

## EFTGSRLLLKLLRFPDSSTCSQA [B6A1]
Estrogen receptor (ER) α
  Fold Induction (ligand induced β-galactosidase activity): 3.5

## EFTSVSRLVTLLLQ* [B1G8]
Estrogen receptor (ER) α
  Fold Induction (ligand induced β-galactosidase activity): 6

## SSEACVGRWMLCEQLGVSR [12Bβ]
ERβ; nafoxidine (10 μM)
  Class Specific Fingerprint on ERβ: peptide binding, Nafoxidine present: 5

## SSNHQSSRLIELLSR [#4 ER./E2]
ERβ; 4-OH tamoxifen (1 μM)
  Class Specific Fingerprint on ERβ: peptide binding, 4-OH Tamoxifen present: 0
ERβ; ICI 182,780 (1 μM)
  Class Specific Fingerprint on ERβ: peptide binding, ICI 182,780 present: 0
ERβ; clomiphene (10 μM)
  Class Specific Fingerprint on ERβ: peptide binding, Clomiphene present: 0
ERβ; raloxifene (1 μM)
  Class Specific Fingerprint on ERβ: peptide binding, Raloxifene present: 0

B1: B8H3, P04386 1-147 (peptide)
chain: MKLLSSIEQACDICRLKKLKCSKEKPKCAKCLKNNWECRYSPKTKRSPLTRAHLTEVESRLERLEQLFLLIFPREDLDMILKMDSLQDIKALLTGLFVQDNVNKDAVTDRLASVETDMPLTLRQHRISATSSSEESSNKGQRQLTVSEFHSRLRVEVVSWGIGSTCSQANSGRISYDL
modifications: not checked
[1]
  normalized luciferase activity, mammalian two-hybrid; CYP.: 10.5
  normalized luciferase activity, mammalian two-hybrid; DHT: 11.6
  normalized luciferase activity, mammalian two-hybrid; MPA: 11.3
  normalized luciferase activity, mammalian two-hybrid; RU486: 3.88
  normalized luciferase activity, mammalian two-hybrid; no compound: 0.132
[2]
  Fold induction, yeast two-hybrid: 22 fold
  β-galactosidase activity, yeast two-hybrid; CPA: 0.393
  β-galactosidase activity, yeast two-hybrid; DHT: 3.81
  β-galactosidase activity, yeast two-hybrid; No Lig: 0.174
  β-galactosidase activity, yeast two-hybrid; RU: 0

B2: B1A1 (peptide)
chain: MKLLSSIEQACDICRLKKLKCSKEKPKCAKCLKNNWECRYSPKTKRSPLTRAHLTEVESRLERLEQLFLLIFPREDLDMILKMDSLQDIKALLTGLFVQDNVNKDAVTDRLASVETDMPLTLRQHRISATSSSEESSNKGQRQLTVSEFCPVGLLVHLLMQ
[3]
  fold induction of β-galactosidase by estradiol, yeast two-hybrid: 11 fold

B3: B1G8 (peptide)
chain: B2 chain with C150T, P151S, G153S, L154R, H157T, M160L
[3]
  fold induction of β-galactosidase by estradiol, yeast two-hybrid: 6 fold

B4: B6F3 (peptide)
chain: MKLLSSIEQACDICRLKKLKCSKEKPKCAKCLKNNWECRYSPKTKRSPLTRAHLTEVESRLERLEQLFLLIFPREDLDMILKMDSLQDIKALLTGLFVQDNVNKDAVTDRLASVETDMPLTLRQHRISATSSSEESSNKGQRQLTVSEFFRATHLLRLLRTDSALDLQPS
[3]
  fold induction of β-galactosidase by estradiol, yeast two-hybrid: 3 fold

B5: B4F6 (peptide)
chain: MKLLSSIEQACDICRLKKLKCSKEKPKCAKCLKNNWECRYSPKTKRSPLTRAHLTEVESRLERLEQLFLLIFPREDLDMILKMDSLQDIKALLTGLFVQDNVNKDAVTDRLASVETDMPLTLRQHRISATSSSEESSNKGQRQLTVSEFSGVPILHMLLMLPSSLDLQPS
[3]
  fold induction of β-galactosidase by estradiol, yeast two-hybrid: 5 fold

B6: B2G1 (peptide)
chain: B4 chain with A152L, T153R, H154R, L156D, R160Q, T161D, D162S, S163F, A164L
[3]
  fold induction of β-galactosidase by estradiol, yeast two-hybrid: 12 fold

B7: B6C4 (peptide)
chain: MKLLSSIEQACDICRLKKLKCSKEKPKCAKCLKNNWECRYSPKTKRSPLTRAHLTEVESRLERLEQLFLLIFPREDLDMILKMDSLQDIKALLTGLFVQDNVNKDAVTDRLASVETDMPLTLRQHRISATSSSEESSNKGQRQLTVSEFDRSSILVSLLSMVETLDLQPS
[3]
  fold induction of β-galactosidase by estradiol, yeast two-hybrid: ≥ 2 fold

B8: B5A2 (peptide)
chain: B7 chain with D150G, R151C, S153A, V156R, S157Y, S160R, M161S, V162P, E163R, T164D
[3]
  fold induction of β-galactosidase by estradiol, yeast two-hybrid: 2.5 fold

B9: B5H10 (peptide)
chain: MKLLSSIEQACDICRLKKLKCSKEKPKCAKCLKNNWECRYSPKTKRSPLTRAHLTEVESRLERLEQLFLLIFPREDLDMILKMDSLQDIKALLTGLFVQDNVNKDAVTDRLASVETDMPLTLRQHRISATSSSEESSNKGQRQLTVSEFSPPSSLLALLLGGKSLEPLPIRYKNVKRQFTSNSRGSVDLQPS
[3]
  fold induction of β-galactosidase by estradiol, yeast two-hybrid: 4.5 fold

B10: B3E2 (peptide)
chain: MKLLSSIEQACDICRLKKLKCSKEKPKCAKCLKNNWECRYSPKTKRSPLTRAHLTEVESRLERLEQLFLLIFPREDLDMILKMDSLQDIKALLTGLFVQDNVNKDAVTDRLASVETDMPLTLRQHRISATSSSEESSNKGQRQLTVSEFGGSVLLRELLCCYDALEPTTTR
[3]
  fold induction of β-galactosidase by estradiol, yeast two-hybrid: 3 fold

B11: B6A1 (peptide)
chain: MKLLSSIEQACDICRLKKLKCSKEKPKCAKCLKNNWECRYSPKTKRSPLTRAHLTEVESRLERLEQLFLLIFPREDLDMILKMDSLQDIKALLTGLFVQDNVNKDAVTDRLASVETDMPLTLRQHRISATSSSEESSNKGQRQLTVSEFTGSRLLLKLLRFPDSSTCSQA
[3]
  fold induction of β-galactosidase by estradiol, yeast two-hybrid: 3.5 fold

B12: B8E9, P04386 1-147 (peptide)
chain: MKLLSSIEQACDICRLKKLKCSKEKPKCAKCLKNNWECRYSPKTKRSPLTRAHLTEVESRLERLEQLFLLIFPREDLDMILKMDSLQDIKALLTGLFVQDNVNKDAVTDRLASVETDMPLTLRQHRISATSSSEESSNKGQRQLTVSEFQQCMCAEVKSWLGGSLDLQPS
modifications: not checked
[1]
  normalized luciferase activity, mammalian two-hybrid; CYP.: 16
  normalized luciferase activity, mammalian two-hybrid; DHT: 19.6
  normalized luciferase activity, mammalian two-hybrid; MPA: 18.5
  normalized luciferase activity, mammalian two-hybrid; RU486: 10.2
  normalized luciferase activity, mammalian two-hybrid; no compound: 0.209
[2]
  Fold induction, yeast two-hybrid: 4 fold
  β-galactosidase activity, yeast two-hybrid; CPA: 0.563
  β-galactosidase activity, yeast two-hybrid; DHT: 1.75
  β-galactosidase activity, yeast two-hybrid; No Lig: 0.499
  β-galactosidase activity, yeast two-hybrid; RU: 0.8
